Measured values: the DeepSol protein solubility set

Assay: soluble on expression in E. coli; label from the status in PepcDB or PDB records

Sequence | soluble on expression in E. coli
MGSDKIHHHHHHMARTVVVGLGRSGIGAARLLQAEGHQVTVLERSIEPHLQSLAADLRLQGIAVELGKPLELNSFIPLLDQLDAVVISPGIAWDHPTLTALRQRGIDIDGEMAVAWRSLSHLPWIAITGTNGKTTVTHLLNHVLESNGLRAPMGGNVGHAAAEVALKWRQPNAQRPDWLVMELSSYQIEAAPEIAPRMGIWTNLTPDHLERHGTLDAYRTIKRGLLERSEIRIFNGDDPDLRSQRSSWDKGLWVSSEGPGTANHRADFWIDAEGLVREPQGALFAASALAMPGQHNLQNLLLVTAAARQTGLPAKAIEASLRSFPGVPHRLEQLGHIQQMSVYNDSKATNYDAACVGLKAVPPPAVVLAGGQTKQGDASGWLKQLDQNACAVILFGAGASELQELIKTSGFSGELHCCSNLNAAVTLAIPLGVERQAACLLLSPACASFDQYQDFEARGEHFRSLISSHLTA | not soluble
MGSDKIHHHHHHMARYYMPAEGDSYLKKVWTWATTGKRFRPSFPRTIEFQTLSTCNAKCIFCPHKHSPKDIPHGRMDDALFRKIVDECARHFVGRVSPYLTNEPLMDKRMPEMLRYIHDKMPFFTKSKINTNAALLTEETGEALIRAGLTHLWISVNGYSPETYRTSMDLDLDRTLTNIDTFLATKRRLGAKNPKVIVTTVETNIVKPELDYARKYWKERDIVFKVHAMDNRAGADSLTFKASKPKLKRNCDLFLKQAYIVENGDMIICCHDWKQTVKVGNVAETSIKEVWNSRYFTDLIRDYVRGDYSRLGICAKCSS | not soluble
MGSDKIHHHHHHMASLTFLGAAQEVTGSCYLLETLDGVKVLLECGMRQGRREADNGNRAPFPFDPASIDAVVISHAHLDHSGLLPRLAAEGFKGPIFATEATCELLELMLLDSAHIQEKDAEWENRWRNRIGKPSIKPLYTQADTERALKLRRPISLGSTVAVARGVRVTFHNAGHILGSSIVEVQFHDQVQPRRLVFSGDLGNTCSPLMRAPSPLSRADVVMLESTYGDRDHRDSNDTLEELAAILDQAHRDGGNVLIPSFAVGRTQDLLYYLGRFYQEGRLPQQAVFLDSPMAARANGIYLRHSNEFDDRDREYIRGTGTTRLEEWLPVLRVTRSADESMAINRIKSGAVIIAGSGMCTGGRIVHHFKHNLWRPECHVVFPGFQARGTLGRNIVDGASAVRVFHQRIAVKAQIHTLGGFSAHAGQSQLLDWVGHFAHRPALYLIHGEREKMEALQSAIRERLDWDAEIPEPGERIEI | not soluble
MGSDKIHHHHHHMASSGTEHDAMRARLVDVAQAIVEERGGAGLTLSELAARAGISQANLSRYFETREDLMEAIADYWFHPMVEIMEDVLASDLPPRRKMYEFFARRFVVMRRKWEADPVKLQTYIEVGNDYFEQVRSYIDLADHYLGEIIGEAMSDGAFSGLEVDETISLVNQMCAPYCALNTMTTFMERLSEDKLARIVDAVFDGLSAQDRGARSLTGLRAA | not soluble
MGSDKIHHHHHHMASTTPEGLEIRPRHLDFDLPDPMPRHWHSGDAFKTHMFNAMSVLFPDGERFFIDSVRHYRERVEDPALKQQIRGFIGQEGHHSREHLVYSDRLRALGYDIDRLEGGAKRRIRFAQQKLHPSRQLAATAALEHLTAIMADGLLSNPRWLEGADPTMARLWRWHALEETEHKAVAYDVFMLVNGKARLRRRAMVQGTFFFALDTTKGLVHMLKRDGLLWNFKVWRDGIKWLWGKDGVFRSLVGVYLDFYKKDFHPWQHNNLHLIEQYRDQFEPEPKAA | not soluble
MGSDKIHHHHHHMATALYTANDFILISLPQNAQPVTAPGSKTDSWFNETLIGGRAFVSDFKIPEFKIGSLDTLIVESEELSKVDNQIGASIGKIIEILQGLNETSTNAYRTLPINNMPVPEYLENFQWQTRKFKLDKSIKDLITLISNESSQLDADVRATYANYNSAKTNLAAAERKKTGDLSVRSLHDIVKPEDFVLNSEHLTTVLVAVPKSLKSDFEKSYETLSKNVVPASASVIAEDAEYVLFNVHLFKKNVQEFTTAAREKKFIPREFNYSEELIDQLKKEHDSAASLEQSLRVQLVRLAKTAYVDVFINWFHIKALRVYVESVLRYGLPPHFNIKIIAVPPKNLSKCKSELIDAFGFLGGNAFMKDKKGKINKQDTSLHQYASLVDTEYEPFVMYIINL | not soluble
